Laboratory results published in US20220411536A1 (NUMAB THERAPEUTICS, published 2022).

T1: recombinant human IL-23R (custom-made by Trenzyme) (human, UniProt Q5VWK5 24-355)
T1 sequence (looked up): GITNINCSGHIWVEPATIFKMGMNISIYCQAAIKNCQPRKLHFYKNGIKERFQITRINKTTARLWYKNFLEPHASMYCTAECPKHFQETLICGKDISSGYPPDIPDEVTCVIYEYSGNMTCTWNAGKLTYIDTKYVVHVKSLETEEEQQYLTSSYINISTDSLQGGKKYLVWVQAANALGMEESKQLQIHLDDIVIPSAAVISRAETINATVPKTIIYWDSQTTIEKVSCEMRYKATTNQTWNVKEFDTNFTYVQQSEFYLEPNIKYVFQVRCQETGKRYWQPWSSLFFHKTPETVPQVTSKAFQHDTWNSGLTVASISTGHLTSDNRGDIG

B1: PRO1544 (multispecific antibody)
chain 1: DIQMTQSPSSLSASVGDRVTITCQASQSINDYLAWYQQKPGKAPKLLIYKASTLASGVPSRFSGSGSGTDFTLTISSLQPEDFATYYCQAAYIITDIDNVFGTGTKVTVLGGGGGSGGGGSGGGGSGGGGSQVQLQESGPGLVKPSETLSLTCKVSGFSFSSGYDMCWIRQPPGKGLEWIGCVVAGSVDITYYASWAKGRVTISVDSSKNQFSLKLSSVTAADTAVYYCARKDAYSDAFNLWGQGTLVTVSSGGGGSGGGGSDVVMTQSPSSLSASVGDRVTITCQASQIISSRSAWYQQKPGQPPKLLIYQASKLASGVPSRFSGSGSGTDFTLTISSLQPEDFATYYCQCTYIDSNFGAFGCGTKLTVLGGGSGGSDIQMTQSPSSLSASVGDRVTITCQSSQSVFSNNYLAWFQQKPGQSPKRLIYSASTLASGVPSRFSGSGSGTDFTLTISSLQPEDFATYYCLGSYACSSADCYVFGTGTKVTVLG
chain 2: not shown
B2: PRO1545 (multispecific antibody)
chain 1: B1 chain 1
chain 2: DIQMTQSPSSLSASVGDRVTITCQASENIYSFLAWYQQKPGKAPKLLIYSASKLAAGVPSRFSGSGSGTDFTLTISSLQPEDFATYYCQQTNRYSNPDIYNVFGTGTKVTVLGGGGGSGGGGSGGGGSGGGGSEVQLVESGGGLVQPGGSLRLSCAASGIDFNSNYYMCWVRQAPGKGLEWIGCIYVGSHVNTYYANWAKGRFTISRDNSKNTVYLQMNSLRAEDTAVYYCATSGSSVLYFKFWGQGTLVTVSSGGGGSGGGGSEVQLVESGGGLVQPGGSLRLSCAASGFSLSSYDMSWVRQAPGKGLAWIGASYASGPTYYASWAKGRFTISRDNSKNTVYLQMNSLRAEDTATYFCARGGWTGTSHSNIWGQGTLVTVSSGGGSGGGSEVQLVESGGGLVQPGGSLRLSCAASGFSFSSSYWICWVRQAPGKCLEWVGCVFTGDGTTYYASWAKGRFTISRDNSKNTVYLQMNSLRAEDTATYFCARPVSVYYYGMDLWGQGTLVTVSS
B3: PRO1076 (scFv, V domains shown)
VH: QVQLQESGPGLVKPSETLSLTCKVSGFSFSSGYDMCWIRQPPGKGLEWIGCVVAGSVDITYYASWAKGRVTISVDSSKNQFSLKLSSVTAADTAVYYCARKDAYSDAFNLWGQGTLVTVSS
VL: DIQMTQSPSSLSASVGDRVTITCQASQSINDYLAWYQQKPGKAPKLLIYKASTLASGVPSRFSGSGSGTDFTLTISSLQPEDFATYYCQQAYIITDIDNVFGTGTKVTVLG
notes: also called 33-03-G02 VL-G109A
B4: PRO1546 (multispecific antibody)
chain 1: DIQMTQSPSSLSASVGDRVTITCQASENIYSFLAWYQQKPGKAPKLLIYSASKLAAGVPSRFSGSGSGTDFTLTISSLQPEDFATYYCQQTNRYSNPDIYNVFGTGTKVTVLGGGGGSGGGGSGGGGSGGGGSEVQLVESGGGLVQPGGSLRLSCAASGIDFNSNYYMCWVRQAPGKGLEWIGCIYVGSHVNTYYANWAKGRFTISRDNSKNTVYLQMNSLRAEDTAVYYCATSGSSVLYFKFWGQGTLVTVSSGGGGSGGGGSDVVMTQSPSSLSASVGDRVTITCQASQIISSRSAWYQQKPGQPPKLLIYQASKLASGVPSRFSGSGSGTDFTLTISSLQPEDFATYYCQCTYIDSNFGAFGCGTKLTVLGGGSGGSDIQMTQSPSSLSASVGDRVTITCQSSQSVFSNNYLAWFQQKPGQSPKRLIYSASTLASGVPSRFSGSGSGTDFTLTISSLQPEDFATYYCLGSYACSSADCYVFGTGTKVTVLG
chain 2: DIQMTQSPSSLSASVGDRVTITCQASQSINDYLAWYQQKPGKAPKLLIYKASTLASGVPSRFSGSGSGTDFTLTISSLQPEDFATYYCQAAYIITDIDNVFGTGTKVTVLGGGGGSGGGGSGGGGSGGGGSQVQLQESGPGLVKPSETLSLTCKVSGFSFSSGYDMCWIRQPPGKGLEWIGCVVAGSVDITYYASWAKGRVTISVDSSKNQFSLKLSSVTAADTAVYYCARKDAYSDAFNLWGQGTLVTVSSGGGGSGGGGSEVQLVESGGGLVQPGGSLRLSCAASGFSLSSYDMSWVRQAPGKGLAWIGASYASGPTYYASWAKGRFTISRDNSKNTVYLQMNSLRAEDTATYFCARGGWTGTSHSNIWGQGTLVTVSSGGGSGGGSEVQLVESGGGLVQPGGSLRLSCAASGFSFSSSYWICWVRQAPGKCLEWVGCVFTGDGTTYYASWAKGRFTISRDNSKNTVYLQMNSLRAEDTATYFCARPVSVYYYGMDLWGQGTLVTVSS

What was measured:
[1] = target: CD3e on Jurkat PD-1 NFAT reporter T cells or on T cells of human PBMCs (human, UniProt P07766 23-207); experiment: cell-based or functional assay
[2] = target: T1, recombinant human IL-23R (custom-made …); experiment: SPR, immobilised IL-23R
[3] = target: T2, recombinant human Her2 ECD (SinoBiological, cat. 10004-HCCH) (human, UniProt P04626 23-652); experiment: SPR, immobilised Her2 ECD
T2 construct: extracellular domain; bought protein

human serum albumin = target: T3, human serum albumin (human, UniProt P02768 25-609); experiment: SPR, immobilised HSA, pH 5.5
T3 construct: also called HSA; human SA

mouse serum albumin = target: T4, mouse serum albumin (mouse, UniProt P07724 25-608); experiment: SPR, immobilised MSA, pH 5.5
T4 construct: also called MSA; mouse SA

[4] = target: T5, Fc-tagged human PD-L1 extracellular domain (SinoBiological, cat. 10084-H02H) (human, UniProt Q9NZQ7 19-238); experiment: SPR, captured Fc-PD-L1 ECD, kinetic
T5 construct: extracellular domain; also called hPD-L1; not shown: Fc tag of the bought protein

[5] = target: T5, Fc-tagged human PD-L1 extracellular …; experiment: SPR, captured Fc-PD-L1 ECD, steady state
[6] = target: T6, recombinant human CD3E ECD (SinoBiological, cat. 10977-H08H) (human, UniProt P07766 23-126); experiment: SPR, immobilised CD3e ECD, two-state model
T6 construct: extracellular domain; bought protein; also called CD3s

[7] = target: T6, recombinant human CD3E ECD …; experiment: SPR, immobilised CD3e ECD, two-state model (ka1)
[8] = target: T6, recombinant human CD3E ECD …; experiment: SPR, immobilised CD3e ECD, two-state model (kd1)
[9] = target: T7, human PD-L1 expressed on cells (CHO-PD-L1, HCC1954, HCC827) (human, UniProt Q9NZQ7 19-290); experiment: flow cytometry, inhibition of biotinylated PD-1 binding to HCC827 cells
T7 construct: whole, on cells; also called hPD-L1; PD-L1 expressing cells

[10] = target: T7, human PD-L1 expressed on cells …; experiment: flow cytometry, inhibition of biotinylated PD-1 binding to HCC1954 cells
[11] = target: T6, recombinant human CD3E ECD …; experiment: SPR, immobilised CD3e ECD, two-state model; overall KD of the two-state fit
[12] = target: T6, recombinant human CD3E ECD …; experiment: SPR, immobilised CD3e ECD, two-state model (ka1); ka1, first step of the two-state fit
[13] = target: T6, recombinant human CD3E ECD …; experiment: SPR, immobilised CD3e ECD, two-state model (kd1); kd1, first step of the two-state fit
[14] = target: T5, Fc-tagged human PD-L1 extracellular …; experiment: SPR, alanine mutants of 33-03-G02
[15] = target: T5, Fc-tagged human PD-L1 extracellular …; experiment: SPR, captured Fc-PD-L1 ECD, scFv analyte, kinetic

T4 sequence (P07724 25-608 limits assumed): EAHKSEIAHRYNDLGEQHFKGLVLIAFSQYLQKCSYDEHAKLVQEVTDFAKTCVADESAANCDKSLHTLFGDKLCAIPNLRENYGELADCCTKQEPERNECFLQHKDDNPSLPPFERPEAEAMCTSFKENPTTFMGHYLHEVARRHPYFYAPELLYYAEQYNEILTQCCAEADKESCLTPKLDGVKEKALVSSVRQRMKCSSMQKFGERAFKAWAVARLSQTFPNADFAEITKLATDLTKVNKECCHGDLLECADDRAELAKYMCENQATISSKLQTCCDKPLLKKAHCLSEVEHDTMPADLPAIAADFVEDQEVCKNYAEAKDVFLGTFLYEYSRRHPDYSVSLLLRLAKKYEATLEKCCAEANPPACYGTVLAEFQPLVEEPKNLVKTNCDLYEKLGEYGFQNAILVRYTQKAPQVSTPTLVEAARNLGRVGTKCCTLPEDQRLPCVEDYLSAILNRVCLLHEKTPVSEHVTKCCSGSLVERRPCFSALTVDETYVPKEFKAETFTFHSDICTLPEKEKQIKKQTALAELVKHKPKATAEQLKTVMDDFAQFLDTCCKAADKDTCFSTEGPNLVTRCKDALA
T6 sequence (P07766 23-126): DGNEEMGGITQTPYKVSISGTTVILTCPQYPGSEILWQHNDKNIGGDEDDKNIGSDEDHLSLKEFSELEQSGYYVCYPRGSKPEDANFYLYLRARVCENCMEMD

Binder	IC50, NFAT reporter, CHO-PD-L1 (A2 clone) cells [1] [nM]	IC50, NFAT reporter, HCC1954 cells [1] [nM]	rel. max. activation vs PRO1497, NFAT reporter, HCC1954 cells [1] [%]	rel. max. activation vs PRO1497 on HCC1954, NFAT reporter, CHO-PD-L1 (A2 clone) cells [1] [%]	Kd (human serum albumin) [nM]	koff (human serum albumin) [s⁻¹]	kon (human serum albumin) [M⁻¹ s⁻¹]	Kd (mouse serum albumin) [nM]	koff (mouse serum albumin) [s⁻¹]	kon (mouse serum albumin) [M⁻¹ s⁻¹]	Kd [4] [nM]	koff [4] [s⁻¹]	kon [4] [M⁻¹ s⁻¹]	Kd [5] [nM]	KD1 [6] [nM]	kd2 [6] [s⁻¹]	IC50 [9] [µg/mL]	IC50 [10] [µg/mL]	Kd [2] [nM]	koff [2] [s⁻¹]	other results
B1	10.5	2.29	78	42	0.87	0.000121	139000	19.5	0.00112	57500	284	0.00117	4120	809	23.2	0.0042	46	0.528	–	–	binding result [2]: no binding (tested: 90 nM highest concentration); Kd [3]: 0.354 nM; koff [3]: 5.56e-05 s⁻¹; kon [3]: 157000 M⁻¹ s⁻¹; Kd [6]: 12.7 nM; kon [7]: 222000 M⁻¹ s⁻¹; koff [8]: 0.00516 s⁻¹
B2	26	12.2	67	59	0.693	0.000119	171000	15.9	0.00108	67900	1130	0.0022	1950	879	38.2	0.00432	88.1	4.14	1.52	0.000471	kon [2]: 309000 M⁻¹ s⁻¹; binding result [3]: no binding (tested: 90 nM highest concentration); Kd [11]: 16.7 nM; kon [12]: 169000 M⁻¹ s⁻¹; koff [13]: 0.00645 s⁻¹
B3	–	–	–	–	–	–	–	–	–	–	–	–	–	–	–	–	–	–	–	–	fold reduction of affinity vs the original domain [14]: > 100 fold; Kd [15]: 7.52 nM; koff [15]: 0.0135 s⁻¹; kon [15]: 1.8e+06 M⁻¹ s⁻¹
B4	31.5	95.4	28	60	0.797	0.000134	168000	17.3	0.00116	67000	14.3	0.000345	24100	380	38.2	0.00533	254	51.9	0.848	0.000388	kon [2]: 458000 M⁻¹ s⁻¹; binding result [3]: no binding (tested: 90 nM highest concentration); Kd [11]: 18.3 nM; kon [12]: 197000 M⁻¹ s⁻¹; koff [13]: 0.00752 s⁻¹
